Here are results for 44 variants from the supplement of paper PMC12783771.

Sequences and labels used below:
B1: library; a variant is named by its letters at X, in order (parent)
chain: MNIQIGELAKRTACPVVTIRFYEQEGLLPPPGRSRGNFRLYGEEHVERLQFIRHCRSLDMPLSXVRTLLSYRKRPDQDCGEVXMLLDEHXRQVESRIGALLELXHXLVELREACSGARPAQSCGILQGLSDCVCDTRGTTAHXSD

In series [1] the parent is B1. The series is described as follows: sfGFP reporter fluorescence (15 h) (µM FITC); higher = higher leak. Particulars: library round: Round 3b; ligand: none. The method, then: (§1)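 Cell-free biosensing: 1 µL Echo-assembled CFE reactions with linear PbrR variant templates (5 nM) and pPbrR-sfGFP reporter, with 1 µM Pb, 30 µM Zn or no ligand; endpoint sfGFP fluorescence after 15 h at 30 °C calibrated as µM FITC. Round 3b rational combinatorial PbrR mutants; 3 biological replicates.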

The variants in series [2] derive from B1. The experiment in a line: sfGFP reporter fluorescence (15 h) (µM FITC); higher = stronger transcriptional activation. The conditions noted are these: library round: Round 3b. The method, then: as §1

± gives the standard deviation of the averaged measurements.

Take DFAKER: the sfGFP reporter fluorescence in series [1] is 0.044 ± 0.0022; in series [2] (ligand: 1 µM Pb) it was 0.0459 ± 0.002; in series [2] (ligand: 30 µM Zn), 0.0423 ± 0.00089.

As to DFAKET, the sfGFP reporter fluorescence in series [1] was found to be 0.037 ± 0.0032; in series [2] (ligand: 1 µM Pb), 0.0413 ± 0.00089; in series [2] (ligand: 30 µM Zn), 0.0436 ± 0.0024.

For DFATAR, the sfGFP reporter fluorescence in series [1] was found to be 0.0431 ± 0.00051; in series [2] (ligand: 1 µM Pb), 0.05286 ± 0.00019; in series [2] (ligand: 30 µM Zn), 0.0448 ± 0.0015.

As for DFATAP, the sfGFP reporter fluorescence in series [1] is 0.0454 ± 0.0046; in series [2] (ligand: 1 µM Pb) it was 0.048 ± 0.0038; in series [2] (ligand: 30 µM Zn) it was 0.0454 ± 0.0051.

For DFATAT, the values for the sfGFP reporter fluorescence in series [1], in series [2] (ligand: 1 µM Pb) and in series [2] (ligand: 30 µM Zn) were 0.0428 ± 0.0034, 0.0475 ± 0.0011 and 0.0455 ± 0.0051, respectively.

Turning to KFIVEP, the sfGFP reporter fluorescence is 0.0475 ± 0.004 in series [1], 0.567 ± 0.017 in series [2] (ligand: 1 µM Pb) and 0.107 ± 0.013 in series [2] (ligand: 30 µM Zn).

Take KFIVER: the sfGFP reporter fluorescence in series [1] is 0.0558 ± 0.0015; in series [2] (ligand: 1 µM Pb), 0.491 ± 0.0094; in series [2] (ligand: 30 µM Zn) it was 0.0916 ± 0.0098.

KFIVET: the sfGFP reporter fluorescence in series [1] is 0.0511 ± 0.0019; in series [2] (ligand: 1 µM Pb), 0.453 ± 0.057; in series [2] (ligand: 30 µM Zn), 0.094 ± 0.006.

In the case of DFAKAR, the sfGFP reporter fluorescence in series [1] is 0.0429 ± 0.0064; in series [2] (ligand: 1 µM Pb), 0.0535 ± 0.005; in series [2] (ligand: 30 µM Zn) it was 0.0435 ± 0.0051.

As to DFAKAT, the sfGFP reporter fluorescence in series [1] came out at 0.0421 ± 0.0041; in series [2] (ligand: 1 µM Pb), 0.0502 ± 0.0044; in series [2] (ligand: 30 µM Zn), 0.04614 ± 0.00019.

In the case of KFAVHR, the values for the sfGFP reporter fluorescence in series [1], in series [2] (ligand: 1 µM Pb) and in series [2] (ligand: 30 µM Zn) were 0.0469 ± 0.0029, 0.631 ± 0.038 and 0.171 ± 0.017, respectively.

Turning to KFAVHP, the figures for the sfGFP reporter fluorescence in series [1], in series [2] (ligand: 1 µM Pb) and in series [2] (ligand: 30 µM Zn) were 0.0477 ± 0.002, 0.656 ± 0.07 and 0.198 ± 0.014, respectively.

KFAVHT: the sfGFP reporter fluorescence in series [1] was 0.0459 ± 0.0029; in series [2] (ligand: 1 µM Pb), 0.632 ± 0.071; in series [2] (ligand: 30 µM Zn) it was 0.179 ± 0.029.

For the variant DFAVAT, the results for the sfGFP reporter fluorescence in series [1], in series [2] (ligand: 1 µM Pb) and in series [2] (ligand: 30 µM Zn) were 0.0442 ± 0.0011, 0.0558 ± 0.0015 and 0.0449 ± 0.0022, respectively.

As to DFAVAR, the sfGFP reporter fluorescence was 0.0466 ± 0.0033 in series [1], 0.0575 ± 0.0018 in series [2] (ligand: 1 µM Pb) and 0.0492 ± 0.0035 in series [2] (ligand: 30 µM Zn).

Consider DFAVAP, for which the results for the sfGFP reporter fluorescence in series [1], in series [2] (ligand: 1 µM Pb) and in series [2] (ligand: 30 µM Zn) were 0.0435 ± 0.0045, 0.0535 ± 0.0046 and 0.0484 ± 0.0012, respectively.

For the variant KFIKAT, the sfGFP reporter fluorescence came out at 0.0418 ± 0.0013 in series [1], 0.169 ± 0.015 in series [2] (ligand: 1 µM Pb) and 0.0513 ± 0.0024 in series [2] (ligand: 30 µM Zn).

Regarding DFITAT, the sfGFP reporter fluorescence came out at 0.0436 ± 0.0017 in series [1], 0.0559 ± 0.004 in series [2] (ligand: 1 µM Pb) and 0.0439 ± 0.00085 in series [2] (ligand: 30 µM Zn).

For DFITAR, the sfGFP reporter fluorescence was determined as 0.0422 ± 0.0057 in series [1], 0.0635 ± 0.0015 in series [2] (ligand: 1 µM Pb) and 0.0455 ± 0.0024 in series [2] (ligand: 30 µM Zn).

For the variant DFAVHT, the results for the sfGFP reporter fluorescence in series [1], in series [2] (ligand: 1 µM Pb) and in series [2] (ligand: 30 µM Zn) were 0.0401 ± 0.0051, 0.0539 ± 0.001 and 0.0473 ± 0.0027, respectively.

For DFAVHR, the sfGFP reporter fluorescence was 0.0438 ± 0.0023 in series [1], 0.059 ± 0.0031 in series [2] (ligand: 1 µM Pb) and 0.0519 ± 0.0031 in series [2] (ligand: 30 µM Zn).

DFIVET: the sfGFP reporter fluorescence in series [1] was 0.0435 ± 0.0054; in series [2] (ligand: 1 µM Pb), 0.0785 ± 0.0019; in series [2] (ligand: 30 µM Zn) it was 0.0449 ± 0.0017.

On to DFIVER, for which the sfGFP reporter fluorescence in series [1] was 0.0476 ± 0.0017; in series [2] (ligand: 1 µM Pb) it was 0.0836 ± 0.0022; in series [2] (ligand: 30 µM Zn), 0.0461 ± 0.001.

For the variant KFIKET, the values for the sfGFP reporter fluorescence in series [1], in series [2] (ligand: 1 µM Pb) and in series [2] (ligand: 30 µM Zn) were 0.0439 ± 0.002, 0.135 ± 0.0014 and 0.0531 ± 0.0027, respectively.

As to KFIKER, the sfGFP reporter fluorescence in series [1] worked out at 0.0412 ± 0.0027; in series [2] (ligand: 1 µM Pb), 0.147 ± 0.0078; in series [2] (ligand: 30 µM Zn), 0.0496 ± 0.0038.

In the case of DFATHT, the results for the sfGFP reporter fluorescence in series [1], in series [2] (ligand: 1 µM Pb) and in series [2] (ligand: 30 µM Zn) were 0.0408 ± 0.0051, 0.0491 ± 0.0032 and 0.0448 ± 0.0049, respectively.

As to DFATHR, the sfGFP reporter fluorescence in series [1] came out at 0.0436 ± 0.0022; in series [2] (ligand: 1 µM Pb) it was 0.053 ± 0.0037; in series [2] (ligand: 30 µM Zn), 0.0482 ± 0.0037.

For KFIVHT, the sfGFP reporter fluorescence was 0.0536 ± 0.0065 in series [1], 0.7 ± 0.038 in series [2] (ligand: 1 µM Pb) and 0.365 ± 0.038 in series [2] (ligand: 30 µM Zn).

As for KIAKAP, the sfGFP reporter fluorescence in series [1] stood at 0.0576 ± 0.0074; in series [2] (ligand: 1 µM Pb), 0.674 ± 0.062; in series [2] (ligand: 30 µM Zn), 0.0578 ± 0.0037.

For the variant KFAKHT, the sfGFP reporter fluorescence was 0.0669 ± 0.0082 in series [1], 0.777 ± 0.035 in series [2] (ligand: 1 µM Pb) and 0.299 ± 0.047 in series [2] (ligand: 30 µM Zn).

Regarding KFAKHR, the results for the sfGFP reporter fluorescence in series [1], in series [2] (ligand: 1 µM Pb) and in series [2] (ligand: 30 µM Zn) were 0.0685 ± 0.0035, 0.843 ± 0.073 and 0.33 ± 0.014, respectively.

Turning to KFAKAP, the sfGFP reporter fluorescence in series [1] was 0.0577 ± 0.0042; in series [2] (ligand: 1 µM Pb) it was 0.495 ± 0.031; in series [2] (ligand: 30 µM Zn) it was 0.073 ± 0.0081.

Take KFAKAT: the sfGFP reporter fluorescence in series [1] turned out to be 0.0569 ± 0.0013; in series [2] (ligand: 1 µM Pb) it was 0.564 ± 0.039; in series [2] (ligand: 30 µM Zn) it was 0.0878 ± 0.0047.

For KFAKAR, the sfGFP reporter fluorescence stood at 0.0579 ± 0.0044 in series [1], 0.663 ± 0.0095 in series [2] (ligand: 1 µM Pb) and 0.0902 ± 0.0064 in series [2] (ligand: 30 µM Zn).

For KFATAR, the values for the sfGFP reporter fluorescence in series [1], in series [2] (ligand: 1 µM Pb) and in series [2] (ligand: 30 µM Zn) were 0.0492 ± 0.0024, 0.462 ± 0.068 and 0.0554 ± 0.0012, respectively.

For KFATAP, the sfGFP reporter fluorescence in series [1] was 0.0501 ± 0.0052; in series [2] (ligand: 1 µM Pb), 0.3845 ± 0.0014; in series [2] (ligand: 30 µM Zn), 0.0524 ± 0.00067.

On to KFATAT, for which the sfGFP reporter fluorescence in series [1] stood at 0.0465 ± 0.0042; in series [2] (ligand: 1 µM Pb) it was 0.455 ± 0.007; in series [2] (ligand: 30 µM Zn), 0.056 ± 0.0037.

Regarding DFAVEP, the figures for the sfGFP reporter fluorescence in series [1], in series [2] (ligand: 1 µM Pb) and in series [2] (ligand: 30 µM Zn) were 0.0418 ± 0.0019, 0.0531 ± 0.0031 and 0.0466 ± 0.0044, respectively.

Consider DFAVER, for which the sfGFP reporter fluorescence amounted to 0.0402 ± 0.0024 in series [1], 0.0506 ± 0.0017 in series [2] (ligand: 1 µM Pb) and 0.0474 ± 0.0015 in series [2] (ligand: 30 µM Zn).

Regarding DFAVET, the sfGFP reporter fluorescence in series [1] came to 0.0447 ± 0.00067; in series [2] (ligand: 1 µM Pb), 0.051 ± 0.0039; in series [2] (ligand: 30 µM Zn), 0.0469 ± 0.00097.

With DFITER, the values for the sfGFP reporter fluorescence in series [1], in series [2] (ligand: 1 µM Pb) and in series [2] (ligand: 30 µM Zn) were 0.0424 ± 0.0031, 0.0522 ± 0.0026 and 0.0451 ± 0.0034, respectively.

As for DFITET, the sfGFP reporter fluorescence in series [1] was found to be 0.0393 ± 0.0042; in series [2] (ligand: 1 µM Pb), 0.0493 ± 0.0022; in series [2] (ligand: 30 µM Zn), 0.0433 ± 0.0032.

In the case of KFATEP, the sfGFP reporter fluorescence in series [1] was 0.0465 ± 0.0032; in series [2] (ligand: 1 µM Pb), 0.442 ± 0.0057; in series [2] (ligand: 30 µM Zn), 0.0564 ± 0.0029.

Take KFATET: the sfGFP reporter fluorescence in series [1] turned out to be 0.0469 ± 0.0028; in series [2] (ligand: 1 µM Pb), 0.404 ± 0.017; in series [2] (ligand: 30 µM Zn), 0.0606 ± 0.0013.
